Data from IntAct's records for PubMed 29039417.

B1: BBSome complex member BBS5 (Homo sapiens), Q8N3I7 (parent)
chain: MSVLDALWEDRDVRFDLSAQQMKTRPGEVLIDCLDSIEDTKGNNGDRGRLLVTNLRILWHSLALSRVNVSVGYNCILNITTRTANSKLRGQTEALYILTKCNSTRFEFIFTNLVPGSPRLFTSVMAVHRAYETSKMYRDFKLRSALIQNKQLRLLPQEHVYDKINGVWNLSSDQGNLGTFFITNVRIVWHANMNDSFNVSIPYLQIRSIKIRDSKFGLALVIESSQQSGGYVLGFKIDPVEKLQESVKEINSLHKVYSASPIFGVDYEMEEKPQPLEALTVEQIQDDVEIDSDGHTDAFVAYFADGNKQQDREPVFSEELGLAIEKLKDGFTLQGLWEVMS
partner: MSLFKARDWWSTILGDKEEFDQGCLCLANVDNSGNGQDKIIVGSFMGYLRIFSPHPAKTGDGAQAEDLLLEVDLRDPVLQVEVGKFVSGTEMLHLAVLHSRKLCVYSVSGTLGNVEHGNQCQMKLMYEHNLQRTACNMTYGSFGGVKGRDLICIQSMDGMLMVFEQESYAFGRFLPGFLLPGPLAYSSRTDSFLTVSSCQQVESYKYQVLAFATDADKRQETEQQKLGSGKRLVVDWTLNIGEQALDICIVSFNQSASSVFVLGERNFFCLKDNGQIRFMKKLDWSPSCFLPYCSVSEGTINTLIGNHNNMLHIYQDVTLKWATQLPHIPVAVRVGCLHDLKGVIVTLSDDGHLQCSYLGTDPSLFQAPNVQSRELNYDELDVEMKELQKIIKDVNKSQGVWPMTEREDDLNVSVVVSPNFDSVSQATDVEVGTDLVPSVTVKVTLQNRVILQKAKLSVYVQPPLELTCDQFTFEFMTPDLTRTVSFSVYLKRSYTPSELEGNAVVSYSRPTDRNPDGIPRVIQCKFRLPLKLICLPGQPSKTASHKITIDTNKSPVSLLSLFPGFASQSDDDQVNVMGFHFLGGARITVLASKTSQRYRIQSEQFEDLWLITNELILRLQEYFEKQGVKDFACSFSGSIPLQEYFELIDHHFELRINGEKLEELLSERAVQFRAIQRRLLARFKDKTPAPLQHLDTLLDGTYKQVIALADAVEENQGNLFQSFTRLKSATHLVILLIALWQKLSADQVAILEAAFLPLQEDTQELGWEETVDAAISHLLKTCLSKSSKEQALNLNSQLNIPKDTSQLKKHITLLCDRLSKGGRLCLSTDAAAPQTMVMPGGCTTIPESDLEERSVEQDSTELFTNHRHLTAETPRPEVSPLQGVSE

Variants of: B1
Details: with pthb1_human BBS9, Q3SYG4

Variant | effect of a mutation on the interaction
MSVLDALWEDRDVRFDLSAQQMKTRPGEVLIDCLDSIEDTKGNNGDRGRLLVTNLRILWHSLALSRVNVSVGYNCILNITTRTANSKLRGQTEALYILTKCNSTRFEFIFTNLVPGSPRLFTSVMAVHRAYETSKMYRDFKLRSALIQNKQLRLLPQEHVYDKINGVWNLSSDQGNLGTFFITNVRIVWHANMNDSKNVSIPYLQIRSIKIRDSKFGLALVIESSQQSGGYVLGFKIDPVEKLQESVKEINSLHKVYSASPIFGVDYEMEEKPQPLEALTVEQIQDDVEIDSDGHTDAFVAYFADGNKQQDREPVFSEELGLAIEKLKDGFTLQGLWEVMS [F197K] | with no effect
MSVLDALWEDRDVRFDLSAQQMKTRPGEVLIDCLDSIEDTKGNNGDRGRLLVTNLRILWHSLALSRVNVSVGYNCILNITTRTANSKLRGQTEALYILTKCNSTRFEFIFTNLVPGSPRLFTSVMAVHRAYETSKMYRDFKLRSALIQNKQLRLLPQEHVYDKINGVWNLSSDQGNLGTFFITNVRIVWHANMNDSENVSIPYLQIRSIKIRDSKFGLALVIESSQQSGGYVLGFKIDPVEKLQESVKEINSLHKVYSASPIFGVDYEMEEKPQPLEALTVEQIQDDVEIDSDGHTDAFVAYFADGNKQQDREPVFSEELGLAIEKLKDGFTLQGLWEVMS [F197E] | with no effect
MSVLDALWEDRDVRFDLSAQQMKTRPGEVLIDCLDSIEDTKGNNGDRGRLLVTNLRILWHSLALSRVNVSVGYNCILNITTRTANSKLRGQTEALYILTKCNSTRFEFIFTNLVPGSPRLFTSVMAVHRAYETSKMYRDFKLRSALIQNKQLRLLPQEHVYDKINGVWNLSSDQGNLGTFFITNVRIVWHANMNDSANVSIPYLQIRSIKIRDSKFGLALVIESSQQSGGYVLGFKIDPVEKLQESVKEINSLHKVYSASPIFGVDYEMEEKPQPLEALTVEQIQDDVEIDSDGHTDAFVAYFADGNKQQDREPVFSEELGLAIEKLKDGFTLQGLWEVMS [F197A] | with no effect
MSVLDALWEDRDVRFDLSAQQMKTRPGEVLIDCLDSIEDTKGNNGDRGRLLVTNLRILWHSLALSRVNVSVGYNCILNITTRTANSKLRGQTEALYILTKCNSTRFEFIFTNLVPGSPRLFTSVMAVHRAYETSKMYRDFKLRSALIQNKQLRLLPQEHVYDKINGVWNLSSDQGNLGTFFITNVRIVWHANMNDSFNESIPYLQIRSIKIRDSKFGLALVIESSQQSGGYVLGFKIDPVEKLQESVKEINSLHKVYSASPIFGVDYEMEEKPQPLEALTVEQIQDDVEIDSDGHTDAFVAYFADGNKQQDREPVFSEELGLAIEKLKDGFTLQGLWEVMS [V199E] | with no effect
MSVLDALWEDRDVRFDLSAQQMKTRPGEVLIDCLDSIEDTKGNNGDRGRLLVTNLRILWHSLALSRVNVSVGYNCILNITTRTANSKLRGQTEALYILTKCNSTRFEFIFTNLVPGSPRLFTSVMAVHRAYETSKMYRDFKLRSALIQNKQLRLLPQEHVYDKINGVWNLSSDQGNLGTFFITNVRIVWHANMNDSFNASIPYLQIRSIKIRDSKFGLALVIESSQQSGGYVLGFKIDPVEKLQESVKEINSLHKVYSASPIFGVDYEMEEKPQPLEALTVEQIQDDVEIDSDGHTDAFVAYFADGNKQQDREPVFSEELGLAIEKLKDGFTLQGLWEVMS [V199A] | with no effect
MSVLDALWEDRDVRFDLSAQQMKTRPGEVLIDCLDSIEDTKGNNGDRGRLLVTNLRILWHSLALSRVNVSVGYNCILNITTRTANSKLRGQTEALYILTKCNSTRFEFIFTNLVPGSPRLFTSVMAVHRAYETSKMYRDFKLRSALIQNKQLRLLPQEHVYDKINGVWNLSSDQGNLGTFFITNVRIVWHANMNDSFNKSIPYLQIRSIKIRDSKFGLALVIESSQQSGGYVLGFKIDPVEKLQESVKEINSLHKVYSASPIFGVDYEMEEKPQPLEALTVEQIQDDVEIDSDGHTDAFVAYFADGNKQQDREPVFSEELGLAIEKLKDGFTLQGLWEVMS [V199K] | with no effect
MSVLDALWEDRDVRFDLSAQQMKTRPGEVLIDCLDSIEDTKGNNGDRGRLLVTNLRILWHSLALSRVNVSVGYNCILNITTRTANSKLRGQTEALYILTKCNSTRFEFIFTNLVPGSPRLFTSVMAVHRAYETSKMYRDFKLRSALIQNKQLRLLPQEHVYDKINGVWNLSSDQGNLGTFFITNVRIVWHANMNDSFEVSIPYLQIRSIKIRDSKFGLALVIESSQQSGGYVLGFKIDPVEKLQESVKEINSLHKVYSASPIFGVDYEMEEKPQPLEALTVEQIQDDVEIDSDGHTDAFVAYFADGNKQQDREPVFSEELGLAIEKLKDGFTLQGLWEVMS [N198E] | with no effect
MSVLDALWEDRDVRFDLSAQQMKTRPGEVLIDCLDSIEDTKGNNGDRGRLLVTNLRILWHSLALSRVNVSVGYNCILNITTRTANSKLRGQTEALYILTKCNSTRFEFIFTNLVPGSPRLFTSVMAVHRAYETSKMYRDFKLRSALIQNKQLRLLPQEHVYDKINGVWNLSSDQGNLGTFFITNVRIVWHANMNDSFAVSIPYLQIRSIKIRDSKFGLALVIESSQQSGGYVLGFKIDPVEKLQESVKEINSLHKVYSASPIFGVDYEMEEKPQPLEALTVEQIQDDVEIDSDGHTDAFVAYFADGNKQQDREPVFSEELGLAIEKLKDGFTLQGLWEVMS [N198A] | with no effect
MSVLDALWEDRDVRFDLSAQQMKTRPGEVLIDCLDSIEDTKGNNGDRGRLLVTNLRILWHSLALSRVNVSVGYNCILNITTRTANSKLRGQTEALYILTKCNSTRFEFIFTNLVPGSPRLFTSVMAVHRAYETSKMYRDFKLRSALIQNKQLRLLPQEHVYDKINGVWNLSSDQGNLGTFFITNVRIVWHANMNDSFKVSIPYLQIRSIKIRDSKFGLALVIESSQQSGGYVLGFKIDPVEKLQESVKEINSLHKVYSASPIFGVDYEMEEKPQPLEALTVEQIQDDVEIDSDGHTDAFVAYFADGNKQQDREPVFSEELGLAIEKLKDGFTLQGLWEVMS [N198K] | with no effect

The next lines start with the values.

effect of a mutation on the interaction | Variant
with no effect | MSVLDALWEDRDVRFDLSAQQMKTRPGEVLIDCLDSIEDTKGNNGDRGRLLVTNLRILWHSLALSRVNVSVGYNCILNITTRTANSKLRGQTEALYILTKCNSTRFEFIFTNLVPGSPRLFTSVMAVHRAYETSKMYRDFKLRSALIQNKQLRLLPQEHVYDKINGVWNLSSDQGNLGTFFITNVRIVWHANMNDSFNVKIPYLQIRSIKIRDSKFGLALVIESSQQSGGYVLGFKIDPVEKLQESVKEINSLHKVYSASPIFGVDYEMEEKPQPLEALTVEQIQDDVEIDSDGHTDAFVAYFADGNKQQDREPVFSEELGLAIEKLKDGFTLQGLWEVMS [S200K]
with no effect | MSVLDALWEDRDVRFDLSAQQMKTRPGEVLIDCLDSIEDTKGNNGDRGRLLVTNLRILWHSLALSRVNVSVGYNCILNITTRTANSKLRGQTEALYILTKCNSTRFEFIFTNLVPGSPRLFTSVMAVHRAYETSKMYRDFKLRSALIQNKQLRLLPQEHVYDKINGVWNLSSDQGNLGTFFITNVRIVWHANMNDSFNVEIPYLQIRSIKIRDSKFGLALVIESSQQSGGYVLGFKIDPVEKLQESVKEINSLHKVYSASPIFGVDYEMEEKPQPLEALTVEQIQDDVEIDSDGHTDAFVAYFADGNKQQDREPVFSEELGLAIEKLKDGFTLQGLWEVMS [S200E]
with no effect | MSVLDALWEDRDVRFDLSAQQMKTRPGEVLIDCLDSIEDTKGNNGDRGRLLVTNLRILWHSLALSRVNVSVGYNCILNITTRTANSKLRGQTEALYILTKCNSTRFEFIFTNLVPGSPRLFTSVMAVHRAYETSKMYRDFKLRSALIQNKQLRLLPQEHVYDKINGVWNLSSDQGNLGTFFITNVRIVWHANMNDSFNVAIPYLQIRSIKIRDSKFGLALVIESSQQSGGYVLGFKIDPVEKLQESVKEINSLHKVYSASPIFGVDYEMEEKPQPLEALTVEQIQDDVEIDSDGHTDAFVAYFADGNKQQDREPVFSEELGLAIEKLKDGFTLQGLWEVMS [S200A]
with no effect | MSVLDALWEDRDVRFDLSAQQMKTRPGEVLIDCLDSIEDTKGNNGDRGRLLVTNLRILWHSLALSRVNVSVGYNCILNITTRTANSKLRGQTEALYILTKCNSTRFEFIFTNLVPGSPRLFTSVMAVHRAYETSKMYRDFKLRSALIQNKQLRLLPQEHVYDKINGVWNLSSDQGNLGTFFITNVRIVWHANMNDSFNVSAPYLQIRSIKIRDSKFGLALVIESSQQSGGYVLGFKIDPVEKLQESVKEINSLHKVYSASPIFGVDYEMEEKPQPLEALTVEQIQDDVEIDSDGHTDAFVAYFADGNKQQDREPVFSEELGLAIEKLKDGFTLQGLWEVMS [I201A]
with no effect | MSVLDALWEDRDVRFDLSAQQMKTRPGEVLIDCLDSIEDTKGNNGDRGRLLVTNLRILWHSLALSRVNVSVGYNCILNITTRTANSKLRGQTEALYILTKCNSTRFEFIFTNLVPGSPRLFTSVMAVHRAYETSKMYRDFKLRSALIQNKQLRLLPQEHVYDKINGVWNLSSDQGNLGTFFITNVRIVWHANMNDSFNVSKPYLQIRSIKIRDSKFGLALVIESSQQSGGYVLGFKIDPVEKLQESVKEINSLHKVYSASPIFGVDYEMEEKPQPLEALTVEQIQDDVEIDSDGHTDAFVAYFADGNKQQDREPVFSEELGLAIEKLKDGFTLQGLWEVMS [I201K]
with no effect | MSVLDALWEDRDVRFDLSAQQMKTRPGEVLIDCLDSIEDTKGNNGDRGRLLVTNLRILWHSLALSRVNVSVGYNCILNITTRTANSKLRGQTEALYILTKCNSTRFEFIFTNLVPGSPRLFTSVMAVHRAYETSKMYRDFKLRSALIQNKQLRLLPQEHVYDKINGVWNLSSDQGNLGTFFITNVRIVWHANMNDSFNVSEPYLQIRSIKIRDSKFGLALVIESSQQSGGYVLGFKIDPVEKLQESVKEINSLHKVYSASPIFGVDYEMEEKPQPLEALTVEQIQDDVEIDSDGHTDAFVAYFADGNKQQDREPVFSEELGLAIEKLKDGFTLQGLWEVMS [I201E]
with no effect | MSVLDALWEDRDVRFDLSAQQMKTRPGEVLIDCLDSIEDTKGNNGDRGRLLVTNLRILWHSLALSRVNVSVGYNCILNITTRTANSKLRGQTEALYILTKCNSTRFEFIFTNLVPGSPRLFTSVMAVHRAYETSKMYRDFKLRSALIQNKQLRLLPQEHVYDKINGVWNLSSDQGNLGTFFITNVRIVWHANMNDSFNVSIAYLQIRSIKIRDSKFGLALVIESSQQSGGYVLGFKIDPVEKLQESVKEINSLHKVYSASPIFGVDYEMEEKPQPLEALTVEQIQDDVEIDSDGHTDAFVAYFADGNKQQDREPVFSEELGLAIEKLKDGFTLQGLWEVMS [P202A]
with no effect | MSVLDALWEDRDVRFDLSAQQMKTRPGEVLIDCLDSIEDTKGNNGDRGRLLVTNLRILWHSLALSRVNVSVGYNCILNITTRTANSKLRGQTEALYILTKCNSTRFEFIFTNLVPGSPRLFTSVMAVHRAYETSKMYRDFKLRSALIQNKQLRLLPQEHVYDKINGVWNLSSDQGNLGTFFITNVRIVWHANMNDSFNVSIEYLQIRSIKIRDSKFGLALVIESSQQSGGYVLGFKIDPVEKLQESVKEINSLHKVYSASPIFGVDYEMEEKPQPLEALTVEQIQDDVEIDSDGHTDAFVAYFADGNKQQDREPVFSEELGLAIEKLKDGFTLQGLWEVMS [P202E]
